Data taken from publication PMC9352346.

Target: GST-Smad4-linker-MH2
Experiment: GST pull-down, immunoblot band quantification
Details: HEK293T cell lysate; n=3; read off a plot

Work on Arl15-WT-GFP A86L yielded an other: relative amount of Arl15-AL-GFP pulled down of 1.1.
